Among the data in US20200199533A1 (KING ABDULLAH UNIVERSITY OF SCIENCE AND TECHNOLOGY, published 2020) are koff, kon and Kd values, retold here.

As usually defined, the koff is the first-order rate constant of dissociation. For orientation: kon means the second-order rate constant of association. In general, Kd refers to the equilibrium constant for the complex coming apart.

The target of assay [1] is T1, PSGL-1, native glycoprotein from human HSPCs (KG1a, CD34^pos-BM) (human, UniProt Q14242 42-412, native glycosylation and tyrosine sulfation).
T1 construct: mature; also called P-selectin glycoprotein ligand-1
T1 sequence (looked up): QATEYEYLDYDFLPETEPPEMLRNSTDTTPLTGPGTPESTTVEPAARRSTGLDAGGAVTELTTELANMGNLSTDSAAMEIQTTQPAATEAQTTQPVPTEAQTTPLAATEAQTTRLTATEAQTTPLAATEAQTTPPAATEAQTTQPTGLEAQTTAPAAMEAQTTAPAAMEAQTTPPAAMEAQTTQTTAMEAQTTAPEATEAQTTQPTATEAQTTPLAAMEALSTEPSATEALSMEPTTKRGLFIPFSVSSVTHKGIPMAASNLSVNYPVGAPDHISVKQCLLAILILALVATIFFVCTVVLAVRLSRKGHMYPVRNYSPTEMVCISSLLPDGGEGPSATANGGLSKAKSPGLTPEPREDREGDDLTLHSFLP
Briefly: SPR; PSGL-1 captured from KG1a lysate on KPL-1-mAb, E-Ig injected, 150 mM NaCl; apparent rate constant; 1st experiment. For orientation: In SPR one partner is held on a chip, and binding of the other changes the refractive index at the surface.

In assay [2] the target is T2, CD43, native glycoprotein from KG1a cells (human, UniProt P16150 20-400, native glycosylation).
T2 construct: mature
T2 sequence (looked up): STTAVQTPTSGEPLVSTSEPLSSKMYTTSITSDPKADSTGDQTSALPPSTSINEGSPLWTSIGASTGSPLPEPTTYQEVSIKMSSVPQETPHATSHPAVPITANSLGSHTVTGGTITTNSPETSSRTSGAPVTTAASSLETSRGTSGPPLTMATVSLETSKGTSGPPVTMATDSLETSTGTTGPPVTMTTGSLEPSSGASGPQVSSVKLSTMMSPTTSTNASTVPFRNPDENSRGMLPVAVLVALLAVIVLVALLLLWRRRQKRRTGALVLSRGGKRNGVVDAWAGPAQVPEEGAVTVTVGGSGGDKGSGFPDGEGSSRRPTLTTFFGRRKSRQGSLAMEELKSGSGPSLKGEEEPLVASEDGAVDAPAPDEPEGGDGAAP
In words: SPR; CD43 captured from KG1a lysate on polyclonal CD43 Ab, E-Ig injected (3.9-2000 nM), 150 mM NaCl; steady-state model; 2nd experiment.

B1: recombinant E-selectin human immunoglobulin chimeric protein (Fc fusion)
chain: WSYNTSTEAMTYDEASAYCQQRYTHLVAIQNKEEIEYLNSILSYSPSYYWIGIRKVNNVWVWVGTQKPLTEEAKNWAPGEPNNRQKDEDCVEIYIKREKDVGMWNDERCSKKKLALCYTAACTNTSCSGHGECVETINNYTCKCDPGFSGLKCEQIVNCTALESPEHGSLVCSHPLGNFSYNSSCSISCDRGYLPSSMETMQCMSSGEWSAPIPACNVVECDAVTNPANGFVECFQNPGSFPWNTTCTFDCEEGFELMGAQSLQCTSSGNWDNEKPTCKAVTCRAVRQPQNGSVRCSHSPAGEFTFKSSCNFTCEEGFMLQGPAQVECTTQGQWTQQIPVCEAFQCTALSNPERGYMNCLPSASGSFRYGSSCEFSCEQGFVLKGSKRLQCGPTGEWDNEKPTCEAVRCDAVHQPPKGLVRCAHSPIGEFTYKSSCAFSCEEGFELHGSTQLECTSQGQWTEEVPSCQVVKCSSLAVPGKINMSCSGEPVFGTVCKFACPEGWTLNGSAARTCGATGHWSGLLPTCEAPTESNIP
Take B1: in assay [1], the off-rate (koff) was 0.00015 s⁻¹ and the kon came out at 438 M⁻¹ s⁻¹. The molecule further returned a dissociation constant Kd in assay [2] of 376 nM.
